Target: full-length c-Jun (Rattus norvegicus (Rat)) (UniProt P17325)
Assay: cell-based or functional assay

- IL-6 dependent response of the α2-macroglobulin luciferase reporter gene in HepG2 cells (fold): 30 fold
- IL-6 response of the α2-macroglobulin luciferase reporter gene in HepG2 cells with increasing Stat3 and extra c-Jun (fold above background): 4
Substance: wild-type Stat3 (transfected, expression vector pRcCMV) (from UniProt P42227 1-770)
